Columns and labels:
[1] = target: T1, FcγRIIa R (extracellular domain, C-terminal His tag) (human, UniProt P12318 34-217); test: SPR (Biacore), antibody captured on antigen-peptide chip, FcγR as analyte; relative binding amount
T1 construct: extracellular domain; also called FcgRIIa R type; 2aR; not shown: His tag attached to the C terminus
T1 sequence (looked up): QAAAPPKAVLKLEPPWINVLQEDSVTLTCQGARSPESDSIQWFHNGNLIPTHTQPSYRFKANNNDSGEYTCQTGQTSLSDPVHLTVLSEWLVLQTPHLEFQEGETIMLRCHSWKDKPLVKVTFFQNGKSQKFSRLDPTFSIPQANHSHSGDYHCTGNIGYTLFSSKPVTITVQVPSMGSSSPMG
Description: (§1) The heterodimerized antibodies He Abs in which one of the H chains was introduced with an alteration were assayed for their binding activities to each activating FcγR and inhibitory FcγR according to the method described in Example 4. […] The activating FcγRs in FIGS. 26, 27, 28, and 29 are FcγRIa, FcγRIIa (R), FcγRIIa (H), and FcγRIIIa, respectively.
(§2) Analysis of interaction between objective antibody and the FcγR was carried out using Biacore T100 (GE Healthcare). HBS-EP+ (GE Healthcare) was used as the running buffer, and the measurement temperature was set to 25° C. Chips produced by immobilizing the antigen peptide by the amine coupling method to a Series S Sencor Chip CM5 (GE Healthcare), or alternatively, chips produced by allowing preliminarily biotinylated antigen peptides to interact with and immobilize onto a Series S Sensor Chip SA (certified) (GE Healthcare) were used. Antibodies of interest were captured onto an antigen peptide-immobilized chip, and allowed to interact to each FcγR diluted with running buffer. To regenerate and repeatedly use the chip, the antibodies captured on the chip were washed off by reacting 10 mM glycine-HCl, pH 1.5.

[2] = target: T2, FcγRIIb (extracellular domain, C-terminal His tag) (human, UniProt P31994 43-217); test: as above
T2 construct: extracellular domain; also called FcgRIIb; 2b; not shown: His tag attached to the C terminus
T2 sequence (looked up): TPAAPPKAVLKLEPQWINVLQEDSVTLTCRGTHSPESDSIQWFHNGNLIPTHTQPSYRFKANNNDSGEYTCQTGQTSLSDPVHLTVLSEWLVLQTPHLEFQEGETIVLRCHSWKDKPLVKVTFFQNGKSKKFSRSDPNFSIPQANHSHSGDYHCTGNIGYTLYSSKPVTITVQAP
Description: as §1, §2

[3] = target: T3, FcγRIIb extracellular domain with C-terminal His tag (human, UniProt P31994 43-217); test: SPR (Biacore), antibody captured on antigen-peptide chip, FcgRIIb as analyte; binding relative to GpH7-A5/GpH7-B3/GpL16-k0 (HeCon Ab) = 100
T3 construct: extracellular domain; Expressed in FreeStyle293 cells; used as analyte in Biacore; also called FcgRIIb; 2b; not shown: C-terminal His tag
T3 sequence (looked up): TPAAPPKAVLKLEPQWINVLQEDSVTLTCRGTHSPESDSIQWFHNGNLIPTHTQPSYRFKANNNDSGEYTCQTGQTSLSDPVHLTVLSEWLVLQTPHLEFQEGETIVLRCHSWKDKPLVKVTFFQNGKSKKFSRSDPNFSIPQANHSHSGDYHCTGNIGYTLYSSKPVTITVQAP

Row | Binder | He/Con_2aR [1] | He/Con_2b [2] | He/Con_2b [3]
1 | GpH7-A5/GpH7-B3 variant E333_15Y/GpL16-k0 (antibody, human IgG1, kappa, Heterodimerized anti-glypican-3 IgG1; alteration in only one H chain (GpH7-B3 side); also called He Ab) heavy 1: not shown heavy 2: not shown light: DIVMTQSPLSLPVTPGEPASISCQASESLVHSNRNTYLHWYLQKPGQSPQLLIYKVSNRFSGVPDRFSGSGSGTDFTLKISRVEAEDVGVYYCSQNTHVPPTFGQGTKVEIERTVAAPSVFIFPPSDEQLKSGTASVVCLLNNFYPREAKVQWKVDNALQSGNSQESVTEQDSKDSTYSLSSTLTLSKADYEKHKVYACEVTHQGLSSPVTKSFNRGEC | 101 % of control (GpH7-A5/GpH7-B3/GpL16-k0 = 100) | 94.4 % of control (GpH7-A5/GpH7-B3/GpL16-k0 = 100) | 
2 | GpH7-A5/GpH7-B3 variant S337_14T/GpL16-k0 (He Ab) (antibody, human IgG1, kappa, Substitution in one H chain only; position in EU numbering; also called S337T heterodimerized antibody) heavy 1: not shown heavy 2: not shown light: DIVMTQSPLSLPVTPGEPASISCQASESLVHSNRNTYLHWYLQKPGQSPQLLIYKVSNRFSGVPDRFSGSGSGTDFTLKISRVEAEDVGVYYCSQNTHVPPTFGQGTKVEIERTVAAPSVFIFPPSDEQLKSGTASVVCLLNNFYPREAKVQWKVDNALQSGNSQESVTEQDSKDSTYSLSSTLTLSKADYEKHKVYACEVTHQGLSSPVTKSFNRGEC |  |  | 105 % of control
3 | GpH7-A5/GpH7-B3 variant S337_03V/GpL16-k0 (antibody, human IgG1, kappa, Heterodimerized anti-glypican-3 IgG1; alteration in only one H chain (GpH7-B3 side); also called He Ab) heavy 1: not shown heavy 2: not shown light: DIVMTQSPLSLPVTPGEPASISCQASESLVHSNRNTYLHWYLQKPGQSPQLLIYKVSNRFSGVPDRFSGSGSGTDFTLKISRVEAEDVGVYYCSQNTHVPPTFGQGTKVEIERTVAAPSVFIFPPSDEQLKSGTASVVCLLNNFYPREAKVQWKVDNALQSGNSQESVTEQDSKDSTYSLSSTLTLSKADYEKHKVYACEVTHQGLSSPVTKSFNRGEC | 106 % of control (GpH7-A5/GpH7-B3/GpL16-k0 = 100) | 98.9 % of control (GpH7-A5/GpH7-B3/GpL16-k0 = 100) | 
4 | GpH7-A5/GpH7-B3 variant Y300_19Q/GpL16-k0 (He Ab) (antibody, human IgG1, kappa, Substitution in one H chain only; position in EU numbering; also called Y300Q heterodimerized antibody) heavy 1: not shown heavy 2: not shown light: DIVMTQSPLSLPVTPGEPASISCQASESLVHSNRNTYLHWYLQKPGQSPQLLIYKVSNRFSGVPDRFSGSGSGTDFTLKISRVEAEDVGVYYCSQNTHVPPTFGQGTKVEIERTVAAPSVFIFPPSDEQLKSGTASVVCLLNNFYPREAKVQWKVDNALQSGNSQESVTEQDSKDSTYSLSSTLTLSKADYEKHKVYACEVTHQGLSSPVTKSFNRGEC |  |  | 108 % of control
5 | GpH7-A5/GpH7-B3 variant S337_10E/GpL16-k0 (He Ab) (antibody, human IgG1, kappa, Substitution in one H chain only; position in EU numbering; also called S337E heterodimerized antibody) heavy 1: not shown heavy 2: not shown light: DIVMTQSPLSLPVTPGEPASISCQASESLVHSNRNTYLHWYLQKPGQSPQLLIYKVSNRFSGVPDRFSGSGSGTDFTLKISRVEAEDVGVYYCSQNTHVPPTFGQGTKVEIERTVAAPSVFIFPPSDEQLKSGTASVVCLLNNFYPREAKVQWKVDNALQSGNSQESVTEQDSKDSTYSLSSTLTLSKADYEKHKVYACEVTHQGLSSPVTKSFNRGEC |  |  | 107 % of control
6 | GpH7-A5/GpH7-B3 variant S337_09D/GpL16-k0 (He Ab) (antibody, human IgG1, kappa, Substitution in one H chain only; position in EU numbering; also called S337D heterodimerized antibody) heavy 1: not shown heavy 2: not shown light: DIVMTQSPLSLPVTPGEPASISCQASESLVHSNRNTYLHWYLQKPGQSPQLLIYKVSNRFSGVPDRFSGSGSGTDFTLKISRVEAEDVGVYYCSQNTHVPPTFGQGTKVEIERTVAAPSVFIFPPSDEQLKSGTASVVCLLNNFYPREAKVQWKVDNALQSGNSQESVTEQDSKDSTYSLSSTLTLSKADYEKHKVYACEVTHQGLSSPVTKSFNRGEC |  |  | 114 % of control
7 | GpH7-A5/GpH7-B3 variant S337_04F/GpL16-k0 (antibody, human IgG1, kappa, Heterodimerized anti-glypican-3 IgG1; alteration in only one H chain (GpH7-B3 side); also called He Ab) heavy 1: not shown heavy 2: not shown light: DIVMTQSPLSLPVTPGEPASISCQASESLVHSNRNTYLHWYLQKPGQSPQLLIYKVSNRFSGVPDRFSGSGSGTDFTLKISRVEAEDVGVYYCSQNTHVPPTFGQGTKVEIERTVAAPSVFIFPPSDEQLKSGTASVVCLLNNFYPREAKVQWKVDNALQSGNSQESVTEQDSKDSTYSLSSTLTLSKADYEKHKVYACEVTHQGLSSPVTKSFNRGEC | 105 % of control (GpH7-A5/GpH7-B3/GpL16-k0 = 100) | 97.8 % of control (GpH7-A5/GpH7-B3/GpL16-k0 = 100) | 
8 | GpH7-A5/GpH7-B3 variant T335_04F/GpL16-k0 (He Ab) (antibody, human IgG1, kappa, Substitution in one H chain only; position in EU numbering; also called T335F heterodimerized antibody) heavy 1: not shown heavy 2: not shown light: DIVMTQSPLSLPVTPGEPASISCQASESLVHSNRNTYLHWYLQKPGQSPQLLIYKVSNRFSGVPDRFSGSGSGTDFTLKISRVEAEDVGVYYCSQNTHVPPTFGQGTKVEIERTVAAPSVFIFPPSDEQLKSGTASVVCLLNNFYPREAKVQWKVDNALQSGNSQESVTEQDSKDSTYSLSSTLTLSKADYEKHKVYACEVTHQGLSSPVTKSFNRGEC |  |  | 103 % of control
9 | GpH7-A5/GpH7-B3 variant E333_08L/GpL16-k0 (antibody, human IgG1, kappa, Heterodimerized anti-glypican-3 IgG1; alteration in only one H chain (GpH7-B3 side); also called He Ab) heavy 1: not shown heavy 2: not shown light: DIVMTQSPLSLPVTPGEPASISCQASESLVHSNRNTYLHWYLQKPGQSPQLLIYKVSNRFSGVPDRFSGSGSGTDFTLKISRVEAEDVGVYYCSQNTHVPPTFGQGTKVEIERTVAAPSVFIFPPSDEQLKSGTASVVCLLNNFYPREAKVQWKVDNALQSGNSQESVTEQDSKDSTYSLSSTLTLSKADYEKHKVYACEVTHQGLSSPVTKSFNRGEC | 103 % of control (GpH7-A5/GpH7-B3/GpL16-k0 = 100) | 95 % of control (GpH7-A5/GpH7-B3/GpL16-k0 = 100) | 

From patent publication US20180155451A1 (published 2018)
